{
  "source": "paper PMC2873280",
  "about": "“Generation of anti-TLR2 intrabody mediating inhibition of macrophage surface TLR2 expression and TLR2-driven cell activation” (BMC Biotechnology, 2010)",
  "molecular_target": "T1, N-terminally Flag-tagged human TLR2 (Homo sapiens, UniProt O60603)",
  "T1 construct": "Toll-like receptor 2, human; also called hTLR2; Toll-like receptor 2; source: HEK293, transiently transfected, in lysate; not shown: Flag, N-terminal, kept",
  "T1 sequence (O60603 21-784)": "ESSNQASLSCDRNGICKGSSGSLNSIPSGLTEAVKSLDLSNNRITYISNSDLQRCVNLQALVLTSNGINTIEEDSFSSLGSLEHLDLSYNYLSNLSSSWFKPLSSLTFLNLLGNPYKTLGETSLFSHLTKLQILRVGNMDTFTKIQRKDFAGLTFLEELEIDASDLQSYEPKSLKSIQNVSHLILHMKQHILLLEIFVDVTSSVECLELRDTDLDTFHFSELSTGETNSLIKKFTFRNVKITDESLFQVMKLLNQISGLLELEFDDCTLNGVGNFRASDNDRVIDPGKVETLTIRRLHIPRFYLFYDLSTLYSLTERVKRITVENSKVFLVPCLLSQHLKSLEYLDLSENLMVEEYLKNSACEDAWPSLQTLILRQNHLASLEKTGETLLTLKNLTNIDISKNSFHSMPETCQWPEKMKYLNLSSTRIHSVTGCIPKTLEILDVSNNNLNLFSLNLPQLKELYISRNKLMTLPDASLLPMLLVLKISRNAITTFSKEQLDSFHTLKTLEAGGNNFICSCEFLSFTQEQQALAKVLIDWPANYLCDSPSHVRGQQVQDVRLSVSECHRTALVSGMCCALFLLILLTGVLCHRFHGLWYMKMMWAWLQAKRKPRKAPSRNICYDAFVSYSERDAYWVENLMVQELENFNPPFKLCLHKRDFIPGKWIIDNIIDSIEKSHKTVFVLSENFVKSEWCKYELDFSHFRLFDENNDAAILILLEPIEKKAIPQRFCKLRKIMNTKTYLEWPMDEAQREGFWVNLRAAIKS",
  "experiment": "co-IP; HEK293 cells co-transfected with Flag-tagged human TLR2 and myc-tagged intrabody; lysed after 48 h (0.5% NP40, 150 mM NaCl); IP with myc-specific antibody and protein G beads, 4°C, 16 h, 5 washes; blot with tag-specific antibodies",
  "details": "partners not purified",
  "data": [
    {"binder": "anti-TLR2 scFv ER intrabody (αT2ib) (scFv, V domains shown, VH of mouse mAb T2.5 (anti human/murine TLR2), amplified from hybridoma cDNA with consensus primers; synthetic 15 amino acid linker, printed as (Gly4Ser)3, between VH and VL; VL (kappa) of mouse mAb T2.5, amplified from hybridoma cDNA with consensus primers; Apparent size about 30 kDa; also called anti-TLR2 ER intrabody; TLR2 specific intrabody; source: HEK293, transiently transfected …) VH: QVQLQQSGPELVNPGASVKLSCKASGFTFTTYGINWVKQGPGQGLEWIGWIYPRDGSTNFNENFKDKAALTVDTSSSTAYMELHSLTSEDSAVYFCARLTGGTFLDYWGQGTTVTVSS VL: DIELTQSPASLAVSLGQRATISCRASESVEYYGTSLMQWYQQKPGQPPKLLIFGASNVESGVPVRFSGSGSGTDFSLNIHPVEEDDIVMYFCQQSRKLPWTFGGGTKLEIK", "values": [
      {"measurement": "binding result", "result": "binds"}
    ]}
  ]
}
